Reference: PMC9464592 (Nature, 2022)

Columns and labels:
Experiment in all cases: SEC
WDR59 ∆CTD = biological target: T1, WDR59 ∆CTD (human, UniProt Q6PJI9 1-890)
T1 sequence (looked up): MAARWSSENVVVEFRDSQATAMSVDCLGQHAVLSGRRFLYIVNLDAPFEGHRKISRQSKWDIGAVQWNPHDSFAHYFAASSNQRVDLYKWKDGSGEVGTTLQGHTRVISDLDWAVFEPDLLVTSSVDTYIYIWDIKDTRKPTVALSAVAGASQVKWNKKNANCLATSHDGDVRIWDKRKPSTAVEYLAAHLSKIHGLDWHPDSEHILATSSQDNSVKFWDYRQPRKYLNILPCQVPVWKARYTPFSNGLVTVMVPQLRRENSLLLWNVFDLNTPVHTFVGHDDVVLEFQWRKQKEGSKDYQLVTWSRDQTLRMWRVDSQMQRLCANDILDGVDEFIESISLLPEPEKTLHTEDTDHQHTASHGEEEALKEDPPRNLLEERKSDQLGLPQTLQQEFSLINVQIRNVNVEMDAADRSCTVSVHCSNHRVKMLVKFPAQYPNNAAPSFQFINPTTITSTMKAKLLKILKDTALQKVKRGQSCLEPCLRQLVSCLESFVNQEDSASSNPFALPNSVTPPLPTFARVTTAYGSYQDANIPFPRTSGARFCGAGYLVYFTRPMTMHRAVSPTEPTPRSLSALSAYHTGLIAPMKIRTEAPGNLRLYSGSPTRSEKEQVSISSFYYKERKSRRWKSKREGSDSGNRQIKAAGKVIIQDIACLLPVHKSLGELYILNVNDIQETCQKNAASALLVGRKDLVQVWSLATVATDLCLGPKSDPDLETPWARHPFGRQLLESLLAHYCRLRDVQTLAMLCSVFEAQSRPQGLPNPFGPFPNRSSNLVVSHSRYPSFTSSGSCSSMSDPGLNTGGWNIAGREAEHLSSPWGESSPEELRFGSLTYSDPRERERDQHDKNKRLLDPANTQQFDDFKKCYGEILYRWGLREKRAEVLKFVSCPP

WDR24 ∆CTD = biological target: T2, WDR24 ∆CTD (human, UniProt Q96S15 1-700)
T2 sequence (looked up): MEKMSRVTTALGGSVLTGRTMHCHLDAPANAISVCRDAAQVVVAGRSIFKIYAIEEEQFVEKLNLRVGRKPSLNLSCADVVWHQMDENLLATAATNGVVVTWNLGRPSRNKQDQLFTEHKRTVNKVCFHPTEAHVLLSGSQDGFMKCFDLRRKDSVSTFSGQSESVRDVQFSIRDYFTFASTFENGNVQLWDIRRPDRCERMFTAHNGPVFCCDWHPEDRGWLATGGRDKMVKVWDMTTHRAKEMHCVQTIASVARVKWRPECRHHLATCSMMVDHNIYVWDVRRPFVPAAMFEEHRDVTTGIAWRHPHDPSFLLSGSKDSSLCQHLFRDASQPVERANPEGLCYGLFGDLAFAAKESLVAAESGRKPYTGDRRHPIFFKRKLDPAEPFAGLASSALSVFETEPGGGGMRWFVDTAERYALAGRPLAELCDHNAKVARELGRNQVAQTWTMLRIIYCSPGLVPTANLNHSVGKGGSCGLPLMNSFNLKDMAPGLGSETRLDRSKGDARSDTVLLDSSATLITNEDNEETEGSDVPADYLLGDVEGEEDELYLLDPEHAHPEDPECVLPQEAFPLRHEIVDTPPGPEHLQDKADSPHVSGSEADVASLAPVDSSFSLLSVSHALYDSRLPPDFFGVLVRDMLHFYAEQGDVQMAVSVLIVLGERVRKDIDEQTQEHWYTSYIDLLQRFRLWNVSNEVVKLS

MIOS A560E = biological target: T3, MIOS A560E (human, UniProt Q9NXC5 1-875, A560E)
T3 sequence: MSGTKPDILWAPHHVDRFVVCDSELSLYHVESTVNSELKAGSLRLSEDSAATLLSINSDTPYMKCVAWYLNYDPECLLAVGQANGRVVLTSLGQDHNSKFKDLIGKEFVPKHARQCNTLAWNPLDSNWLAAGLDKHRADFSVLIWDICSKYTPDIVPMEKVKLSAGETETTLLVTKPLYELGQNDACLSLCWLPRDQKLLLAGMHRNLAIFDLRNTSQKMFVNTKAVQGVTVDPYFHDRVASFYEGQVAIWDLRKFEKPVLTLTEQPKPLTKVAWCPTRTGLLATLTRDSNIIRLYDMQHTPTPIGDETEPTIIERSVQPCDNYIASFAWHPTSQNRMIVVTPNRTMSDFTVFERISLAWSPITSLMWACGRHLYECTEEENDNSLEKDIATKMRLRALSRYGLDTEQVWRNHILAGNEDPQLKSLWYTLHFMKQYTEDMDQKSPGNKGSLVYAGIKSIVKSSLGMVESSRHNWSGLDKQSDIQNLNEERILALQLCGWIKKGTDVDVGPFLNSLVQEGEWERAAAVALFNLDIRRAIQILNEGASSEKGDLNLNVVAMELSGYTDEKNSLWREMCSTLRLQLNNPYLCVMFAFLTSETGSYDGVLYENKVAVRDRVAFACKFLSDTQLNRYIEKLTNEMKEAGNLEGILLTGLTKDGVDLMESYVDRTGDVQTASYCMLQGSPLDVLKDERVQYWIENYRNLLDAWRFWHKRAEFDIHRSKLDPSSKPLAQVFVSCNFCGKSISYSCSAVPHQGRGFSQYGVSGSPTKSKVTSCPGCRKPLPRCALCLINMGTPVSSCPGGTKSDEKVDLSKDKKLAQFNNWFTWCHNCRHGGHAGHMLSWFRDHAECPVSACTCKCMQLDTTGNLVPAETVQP

Measured: binding result

B1: tag-free SEC13 (natural protein, human)
chain: MVSVINTVDTSHEDMIHDAQMDYYGTRLATCSSDRSVKIFDVRNGGQILIADLRGHEGPVWQVAWAHPMYGNILASCSYDRKVIIWREENGTWEKSHEHAGHDSSVNSVCWAPHDYGLILACGSSDGAISLLTYTGEGQWEVKKINNAHTIGCNAVSWAPAVVPGSLIDHPSGQKPNYIKRFASGGCDNLIKLWKEEEDGQWKEEQKLEAHSDWVRDVAWAPSIGLPTSTIASCSQDGRVFIWTCDDASSNTWSPKLLHKFNDVVWHVSWSITANILAVSGGDNKVTLWKESVDGQWVCISDVNKGQGSVSASVTEGQQNEQ
binds: all assays above
